How the values were obtained:
Agp2 = target: T1, Agp2 (Agrobacterium fabrum, UniProt A9CI81); assay: UV/vis absorbance after chromophore assembly and desalting; format: binding; conditions: covalent (Cys13); threefold molar excess BV, 2 h, RT, pH 7.8, 1 mM TCEP; Atto-495 labelled afterwards
T1 construct: gene Atu2165; full length (PAS-GAF-PHY-histidine kinase-response regulator), C-terminal His6, E. coli DH5-alpha, pAg2 (pET21b-based), purified apoprotein, homodimer
T1 sequence (A9CI81 1-850): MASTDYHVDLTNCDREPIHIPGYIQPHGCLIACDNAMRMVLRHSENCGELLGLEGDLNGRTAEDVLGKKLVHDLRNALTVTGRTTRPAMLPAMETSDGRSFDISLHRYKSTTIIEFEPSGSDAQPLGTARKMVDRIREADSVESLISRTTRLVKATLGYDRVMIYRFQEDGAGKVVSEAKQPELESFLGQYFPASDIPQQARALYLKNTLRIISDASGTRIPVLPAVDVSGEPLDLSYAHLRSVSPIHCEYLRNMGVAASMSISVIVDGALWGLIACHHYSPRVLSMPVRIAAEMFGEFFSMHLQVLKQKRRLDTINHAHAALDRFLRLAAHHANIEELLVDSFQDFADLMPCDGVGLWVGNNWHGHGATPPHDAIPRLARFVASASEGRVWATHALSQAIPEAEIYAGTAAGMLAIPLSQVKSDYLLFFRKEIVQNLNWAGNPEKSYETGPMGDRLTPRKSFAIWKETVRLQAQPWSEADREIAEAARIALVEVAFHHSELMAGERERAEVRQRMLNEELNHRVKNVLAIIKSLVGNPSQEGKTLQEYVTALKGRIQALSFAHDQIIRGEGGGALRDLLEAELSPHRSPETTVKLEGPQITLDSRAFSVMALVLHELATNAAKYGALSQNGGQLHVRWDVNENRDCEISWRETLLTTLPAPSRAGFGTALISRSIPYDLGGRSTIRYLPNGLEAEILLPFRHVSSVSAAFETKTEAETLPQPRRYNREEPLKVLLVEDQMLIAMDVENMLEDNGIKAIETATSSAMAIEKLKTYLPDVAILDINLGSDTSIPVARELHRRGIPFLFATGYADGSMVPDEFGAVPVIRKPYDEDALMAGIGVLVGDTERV

Agp2-PCM = target: T2, Agp2-PCM (Agrobacterium fabrum, UniProt A9CI81); assay: as above; format: binding; conditions: covalent (Cys13); threefold molar excess BV, 2 h, RT, pH 7.8, 1 mM TCEP; Atto-495 labelled afterwards
T2 construct: gene Atu2165; photosensory chromophore module (PAS, GAF, PHY)
T2 sequence (A9CI81 1-501): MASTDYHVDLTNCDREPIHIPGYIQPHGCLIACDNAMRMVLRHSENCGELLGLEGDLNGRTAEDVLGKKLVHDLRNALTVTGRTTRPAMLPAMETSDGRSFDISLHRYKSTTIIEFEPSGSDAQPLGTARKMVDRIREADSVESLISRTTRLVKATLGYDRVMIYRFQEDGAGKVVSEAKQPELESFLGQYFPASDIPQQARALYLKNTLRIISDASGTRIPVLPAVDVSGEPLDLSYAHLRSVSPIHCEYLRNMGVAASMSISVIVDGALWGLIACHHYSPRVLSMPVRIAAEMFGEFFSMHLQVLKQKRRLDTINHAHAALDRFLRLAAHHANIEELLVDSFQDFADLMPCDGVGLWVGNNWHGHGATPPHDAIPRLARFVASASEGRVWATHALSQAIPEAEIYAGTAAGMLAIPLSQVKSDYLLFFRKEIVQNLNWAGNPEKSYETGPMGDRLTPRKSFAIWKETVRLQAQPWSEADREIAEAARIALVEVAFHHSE
Source text: UV/vis absorbance after chromophore assembly and desalting on Agp2-PCM

[1] = target: Agp2, full length wild-type A. fabrum phytochrome, labeled with Atto-495 (Agrobacterium fabrum); assay: FRET or BRET
[2] = target: Agp2-PCM, photosensory chromophore module of Agp2, labeled with Atto-495 (Agrobacterium fabrum); assay: FRET or BRET

Compound | E FRET (FRET transfer efficiency) [1] | further results
C=CC1=C(C)/C(=C/C2=NC(=C\c3[nH]c(/C=C4\NC(=O)C(C)=C4C=C)c(C)c3CCC(=O)O)/C(CCC(=O)O)=C2C)NC1=O [Biliverdin] |  | Agp2 (Agp2): 0.70 ± 0.04 mol/mol; Agp2 PCM (Agp2-PCM): 0.98 ± 0.01 mol/mol
Agp1 A362C, full-length A. fabrum phytochrome Agp1 mutant labeled with Atto-565 (natural protein) | 0.1 | 
Agp1 S122C, full-length A. fabrum phytochrome Agp1 mutant labeled with Atto-565 (natural protein) | 0.09 | 
Agp1 K554C, full-length A. fabrum phytochrome Agp1 mutant labeled with Atto-565 (natural protein) | 0.28 | 
Agp1 R603C, full-length A. fabrum phytochrome Agp1 mutant labeled with Atto-565 (natural protein) | 0.2 | 
Agp1 K517C, full-length A. fabrum phytochrome Agp1 mutant labeled with Atto-565 (natural protein) | 0.15 | E FRET (FRET transfer efficiency) [2]: 0.14
Agp1 R535C, full-length A. fabrum phytochrome Agp1 mutant labeled with Atto-565 (natural protein) | 0.21 | 
